Laboratory results from US20180305450A1 (AstraZeneca / MedImmune, published 2018).

How the values were obtained:
[1] = target: T1, recombinant biotinylated human PAR2 extracellular domain (residues 1-75), N-terminal AviTag, C-terminal Flag … (human, UniProt P55085 26-75, biotin on the AviTag (enzymatic biotinylation)); experiment: HTRF competition with Par0067 IgG, pH 6.0, scFv
T1 construct: also called Bio-human-PAR2 ECD; human PAR2 ECD; not shown: N-terminal AviTag (Avidity LLC); C-terminal Flag and poly Histidine tags
T1 sequence (P55085 26-75): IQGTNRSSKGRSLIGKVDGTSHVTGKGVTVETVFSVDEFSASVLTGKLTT
Protocol: (§1) 5 μl/well of the appropriate pH 4.44 nM Par0067 IgG solution was added to all wells of the relevant assay plate (pH 7.4 and pH 6.0).
(§2) Test scFv Preparation/Addition: [0172] a) For parallel single point HTS of crude un-purified bacterial lysate scFv samples at both pH 7.4 and pH 6.0 samples were first pre-diluted to 40% of their neat concentration using either pH 7.4 or pH 6.0 assay buffer as appropriate. Subsequently 5 μl of 40% pre-diluted sample was then transferred into the appropriate assay (pH 7.4 or pH 6.0) in order to give a final assay sample concentration of 10.0% (in the 20 μl final assay volume). The parent Par0067 scFv was included in all HTS experiments as a control as were specific pH dependent antibodies as those became available (for benchmarking). […] Duplicate 11 point 1:3 serial dilutions then were prepared on 384 well polypropylene Greiner plates in each of the two assay buffers (pH 7.4 & 6.0). 5 μl per well of each serial dilution was transferred from the relevant pH scFv dilution plate to the corresponding assay plate (pH 7.4 and pH 6.0). 5 μl of the appropriate pH assay buffer was added to the total and non-specific wells. The parent Par0067 purified scFv was included in all multipoint dose response IC₅₀ experiments as a control as were specific pH dependent purified scFv as those became available (for benchmarking).
(§3) For multipoint dose response curves % Specific Binding values were plotted versus test purified antibody concentration (scFv or IgG). IC₅₀ values were determined via a sigmoidal dose response inhibition variable slope curve fit (4 parameter logistic equation) using Graphpad Prism Software.

[2] = target: T1, recombinant biotinylated human PAR2 …; experiment: HTRF competition with Par0067 IgG, scFv
Protocol: as §1, §2, §3

[3] = target: T1, recombinant biotinylated human PAR2 …; experiment: HTRF competition with Par0067 IgG, pH 7.4, scFv
Protocol: as §1, §2, §3

| Binder | IC50 [1] | Fold IC50 (pH 6.0 v pH 7.4) [2] | Fold IC50 pH 7.4 (Variant v Par0067) [2] | IC50 [3] |
| --- | --- | --- | --- | --- |
| PaB670075 scFv (scFv, V domains shown, purified scFv; also called ZZ1NHH-A05) VH: EVQLLESGGGLVQPGGSLRLSCAASGFTFSSYAMNWVRQAPGKGLEWVSTISYSGSLISYADSVKGRFTISRDNSKNTLYLQMNSLRAEDTAVYYCARINNDPMDVWGQGTLVTVSS VL: SIELTQPPSVSVSPGQTASITCSGDNLGKKYVQWYQQKPGQSPVLVIYDDSNRPSGIPERFSGSNSGNTATLTISGTQAMDEADYYCQHWDGNHHHGETNHFGGGTKLTVL | 603 nM | 5.9 fold | 30.8 fold | 102 nM |
| PaB670066 scFv (scFv, V domains shown, purified scFv; also called ZZ1KX6-D05) VH: EVQLLESGGGLVQPGGSLRLSCAASGFTFSSYAMNWVRQAPGKGLEWVSTISYSGSLISYADSVKGRFTISRDNSKNTLYLQMNSLRAEDTAVYYCARINNDPMDVWGQGTLVTVSS VL: SIELTQPPSVSVSPGQTASITCSGDNLGKKYVQWYQQKPGQSPVLVIYDDSNRPSGIPERFSGSNSGNTATLTISGTQAMDEADYYCHHWHGNHHTGETNHFGGGTKLTVL | 487 nM | 9.3 fold | 15.8 fold | 52.2 nM |
| PaB670076 scFv (scFv, V domains shown, purified scFv; also called ZZ1NHH-F09) VH: EVQLLESGGGLVQPGGSLRLSCAASGFTFSSYAMNWVRQAPGKGLEWVSTISYSGSLISYADSVKGRFTISRDNSKNTLYLQMNSLRAEDTAVYYCARINNDPMDVWGQGTLVTVSS VL: SIELTQPPSVSVSPGQTASITCSGDNLGKKYVQWYQQKPGQSPVLVIYDDSNRPSGIPERFSGSNSGNTATLTISGTQAMDEADYYCHTWDHHHTTGEHNVFGGGTKLTVL | 292 nM | 6.3 fold | 14 fold | 46.2 nM |
| PaB670068 scFv (scFv, V domains shown, purified scFv; also called ZZ1KXE-B01) VH: EVQLLESGGGLVQPGGSLRLSCAASGFTFSSYAMNWVRQAPGKGLEWVSTISYSGSLISYADSVKGRFTISRDNSKNTLYLQMNSLRAEDTAVYYCARINNDPMDVWGQGTLVTVSS VL: SIELTQPPSVSVSPGQTASITCSGDNLGKKYVQWYQQKPGQSPVLVIYDDSNRPSGIPERFSGSNSGNTATLTISGTQAMDEADYYCQTWDGHHTHGEHHVFGGGTKLTVL | 448 nM | 5.8 fold | 23.6 fold | 77.8 nM |
| PaB670077 scFv (scFv, V domains shown, purified scFv; also called ZZ1OZJ-C11) VH: EVQLLESGGGLVQPGGSLRLSCAASGFTFSSYAMNWVRQAPGKGLEWVSTISYSGSLISYADSVKGRFTISRDNSKNTLYLQMNSLRAEDTAVYYCARINNDPMDVWGQGTLVTVSS VL: SIELTQPPSVSVSPGQTASITCSGDNLGKKYVQWYQQKPGQSPVLVIYDDSNRPSGIPERFSGSNSGNTATLTISGTQAMDEADYYCHHWHGHHTTGETNHFGGGTKLTVL | 620 nM | 11.2 fold | 16.8 fold | 55.4 nM |
| PaB670073 scFv (scFv, V domains shown, purified scFv; also called ZZ1L3F-H03) VH: EVQLLESGGGLVQPGGSLRLSCAASGFTFSSYAMNWVRQAPGKGLEWVSTISYSGSLISYADSVKGRFTISRDNSKNTLYLQMNSLRAEDTAVYYCARINNDPMDVWGQGTLVTVSS VL: SIELTQPPSVSVSPGQTASITCSGDNLGKKYVQWYQQKPGQSPVLVIYDDSNRPSGIPERFSGSNSGNTATLTISGTQAMDEADYYCQHWHGHPHHGEHNVFGGGTKLTVL | 428 nM | 5.9 fold | 21.8 fold | 72.1 nM |
| PaB670071 scFv (scFv, V domains shown, purified scFv; also called ZZ1L3F-A02) VH: EVQLLESGGGLVQPGGSLRLSCAASGFTFSSYAMNWVRQAPGKGLEWVSTISYSGSLISYADSVKGRFTISRDNSKNTLYLQMNSLRAEDTAVYYCARINNDPMDVWGQGTLVTVSS VL: SIELTQPPSVSVSPGQTASITCSGDNLGKKYVQWYQQKPGQSPVLVIYDDSNRPSGIPERFSGSNSGNTATLTISGTQAMDEADYYCHTWHHHHHTGEHNHFGGGTKLTVL | 425 nM | 4.2 fold | 30.7 fold | 101 nM |

Second part, the binder after the results:

| IC50 [1] | Fold IC50 (pH 6.0 v pH 7.4) [2] | Fold IC50 pH 7.4 (Variant v Par0067) [2] | IC50 [3] | Binder |
| --- | --- | --- | --- | --- |
| 41.8 nM | 2.7 fold | 4.7 fold | 15.4 nM | PaB670010 scFv (scFv, V domains shown, purified scFv; also called ZZ1DRB-B08) VH: EVQLLESGGGLVQPGGSLRLSCAASGFTFSSYAMNWVRQAPGKGLEWVSTISYSGSLIHYADSVKGRFTISRDNSKNTLYLQMNSLRAEDTAVYYCARINNDPMDVWGQGTLVTVSS VL: SIELTQPPSVSVSPGQTASITCSGDNLGKKYVQWYQQKPGQSPVLVIYDDSNRPSGIPERFSGSNSGNTATLTISGTQAMDEADYYCQTWDGNPTTGETNVFGGGTKLTVL |
| 14.2 nM | 2.5 fold | 1.7 fold | 5.6 nM | PaB670034 scFv (scFv, V domains shown, purified scFv; also called ZZ1IGF-B11) VH: EVQLLESGGGLVQPGGSLRLSCAASGFTFSSYAMNWVRQAPGKGLEWVSTISYSGSLISYADSVKGRFTISRDNSKNTLYLQMNSLRAEDTAVYYCARINNDPMDVWGQGTLVTVSS VL: SIELTQPPSVSVSPGQTASITCSGDNLGKKYVQWYQQKPGQSPVLVIYDDSNRPSGIPERFSGSNSGNTATLTISGTQAMDEADYYCQTWDGNPTHGETNVFGGGTKLTVL |
| 270 nM | 4.5 fold | 18.3 fold | 60.4 nM | PaB670070 scFv (scFv, V domains shown, purified scFv; also called ZZ1KXE-D06) VH: EVQLLESGGGLVQPGGSLRLSCAASGFTFSSYAMNWVRQAPGKGLEWVSTISYSGSLISYADSVKGRFTISRDNSKNTLYLQMNSLRAEDTAVYYCARINNDPMDVWGQGTLVTVSS VL: SIELTQPPSVSVSPGQTASITCSGDNLGKKYVQWYQQKPGQSPVLVIYDDSNRPSGIPERFSGSNSGNTATLTISGTQAMDEADYYCQTWDHNHHTGHTNVFGGGTKLTVL |
| 139 nM | 9.6 fold | 4.4 fold | 14.5 nM | PaB670048 scFv (scFv, V domains shown, purified scFv; also called ZZ1KX4-E11) VH: EVQLLESGGGLVQPGGSLRLSCAASGFTFSSYAMNWVRQAPGKGLEWVSTISYSGSLISYADSVKGRFTISRDNSKNTLYLQMNSLRAEDTAVYYCARIHHDPMDHWGQGTLVTVSS VL: SIELTQPPSVSVSPGQTASITCSGDNLGKKYVQWYQQKPGQSPVLVIYDDSNRPSGIPERFSGSNSGNTATLTISGTQAMDEADYYCQTWDGNPTTGETNVFGGGTKLTVL |
| 72.5 nM | 7.4 fold | 3 fold | 9.8 nM | PaB670045 scFv (scFv, V domains shown, purified scFv; also called ZZ1KX3-F01) VH: EVQLLESGGGLVQPGGSLRLSCAASGFTFSSYAMNWVRQAPGKGLEWVSTISYSGSLISYADSVKGRFTISRDNSKNTLYLQMNSLRAEDTAVYYCARIHHDPMDVWGQGTLVTVSS VL: SIELTQPPSVSVSPGQTASITCSGDNLGKKYVQWYQQKPGQSPVLVIYDDSNRPSGIPERFSGSNSGNTATLTISGTQAMDEADYYCQTWDGNPTTGETNVFGGGTKLTVL |
| 113 nM | 7.9 fold | 4.4 fold | 14.4 nM | PaB670067 scFv (scFv, V domains shown, purified scFv; also called ZZ1KXE-A05) VH: EVQLLESGGGLVQPGGSLRLSCAASGFTFSSYAMNWVRQAPGKGLEWVSTISYSGSLISYADSVKGRFTISRDNSKNTLYLQMNSLRAEDTAVYYCARINNDPMDVWGQGTLVTVSS VL: SIELTQPPSVSVSPGQTASITCSGDNLGKKYVQWYQQKPGQSPVLVIYDDSNRPSGIPERFSGSNSGNTATLTISGTQAMDEADYYCHTWHHHPTHGEHNVFGGGTKLTVL |
| 18.5 nM | 3.3 fold | 1.7 fold | 5.6 nM | PaB670020 scFv (scFv, V domains shown, purified scFv; also called ZZ1IGD-D05) VH: EVQLLESGGGLVQPGGSLRLSCAASGFTFSSYAMNWVRQAPGKGLEWVSTISYSGSLISYADSVKGRFTISRDNSKNTLYLQMNSLRAEDTAVYYCARINHDPMDVWGQGTLVTVSS VL: SIELTQPPSVSVSPGQTASITCSGDNLGKKYVQWYQQKPGQSPVLVIYDDSNRPSGIPERFSGSNSGNTATLTISGTQAMDEADYYCQTWDGNPTTGETNVFGGGTKLTVL |
| 290 nM | 4.3 fold | 20.3 fold | 67.1 nM | PaB670064 scFv (scFv, V domains shown, purified scFv; also called ZZ1KX6-B09) VH: EVQLLESGGGLVQPGGSLRLSCAASGFTFSSYAMNWVRQAPGKGLEWVSTISYSGSLISYADSVKGRFTISRDNSKNTLYLQMNSLRAEDTAVYYCARINNDPMDVWGQGTLVTVSS VL: SIELTQPPSVSVSPGQTASITCSGDNLGKKYVQWYQQKPGQSPVLVIYDDSNRPSGIPERFSGSNSGNTATLTISGTQAMDEADYYCHTWHHNPHTGETNHFGGGTKLTVL |
